One assay addresses T1, NRP1 (UniProt O14786-2 22-644, limits assumed).
T1 construct: Control 'natural receptor'; also called neuropilin-1; neuropilin 1
Put plainly: ELISA, VEGF165. In general terms: An ELISA detects its analyte on a solid surface through an enzyme-linked reagent.

The next assay has as its target T2, NRP2 (UniProt O60462 23-864, limits assumed).
T2 construct: Control 'natural receptor'
The assay can be described thus: ELISA, VEGF165.

Among the data in patent US20190375821A1 (IBENTRUS, published 2019) are Kd values, retold here.

T2 sequence (O60462 23-864 limits assumed): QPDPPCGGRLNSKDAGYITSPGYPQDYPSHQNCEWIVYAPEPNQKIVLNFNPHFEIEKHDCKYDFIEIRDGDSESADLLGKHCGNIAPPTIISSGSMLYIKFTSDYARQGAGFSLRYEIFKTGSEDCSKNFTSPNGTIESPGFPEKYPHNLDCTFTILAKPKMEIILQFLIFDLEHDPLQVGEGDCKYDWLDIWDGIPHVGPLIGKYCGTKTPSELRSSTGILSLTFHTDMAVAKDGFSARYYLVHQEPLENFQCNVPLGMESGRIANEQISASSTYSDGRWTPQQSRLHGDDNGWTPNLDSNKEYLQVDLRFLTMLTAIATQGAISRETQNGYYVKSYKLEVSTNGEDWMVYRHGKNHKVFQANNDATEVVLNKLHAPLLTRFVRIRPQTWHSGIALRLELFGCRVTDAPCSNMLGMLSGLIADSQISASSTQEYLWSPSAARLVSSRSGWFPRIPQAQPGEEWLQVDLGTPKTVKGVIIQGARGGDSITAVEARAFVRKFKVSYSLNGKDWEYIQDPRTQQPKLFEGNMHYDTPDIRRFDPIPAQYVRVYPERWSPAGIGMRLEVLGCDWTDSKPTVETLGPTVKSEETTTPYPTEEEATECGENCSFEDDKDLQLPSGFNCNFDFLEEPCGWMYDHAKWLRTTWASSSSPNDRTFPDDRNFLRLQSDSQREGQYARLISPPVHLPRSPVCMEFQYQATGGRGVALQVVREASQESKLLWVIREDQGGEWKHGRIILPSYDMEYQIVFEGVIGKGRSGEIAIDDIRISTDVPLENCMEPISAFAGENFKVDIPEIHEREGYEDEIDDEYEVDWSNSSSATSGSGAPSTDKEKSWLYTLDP

B1: VEGF165 (ligand, UniProt P15692-4 27-191, looked up)
chain: APMAEGGGQNHHEVVKFMDVYQRSYCHPIETLVDIFQEYPDEIEYIFKPSCVPLMRCGGCCNDEGLECVPTEESNITMQIMRIKPHQGQHIGEMSFLQHNKCECRPKKDRARQENPCGPCSERRKHLFVQDPQTCKCSCKNTDSRCKARQLELNERTCRCDKPRR
notes: also called VEGFA
As usually defined, the Kd is the concentration at which binding is half-saturated. The low end stands for tighter binding, the high end for weaker binding. With B1, the Kd in the assay with NRP1 is 0.312 nM; in the assay with NRP2, 8 nM.
